Measurements published in US20230107644A1.

Tests used:
[1] = biological target: NA (N2) of influenza virus A/Brisbane/10/2007 (influenza A virus A/Brisbane/10/2007 (H3N2))
[2] = biological target: NA (N2) of influenza virus A/Wisconsin/67/2005 (influenza A virus A/Wisconsin/67/2005 (H3N2))
[3] = biological target: N2 A/shorebird/Delaware/127/1997 (Influenza A virus (A/shorebird/Delaware/127/1997))
[4] = biological target: NA (N2) of influenza virus A/Texas/50/2012 (influenza A virus A/Texas/50/2012 (H3N2)); assay: cell-based or functional assay
[5] = biological target: NA (N2) of influenza virus A/Uruguay/716/2007 (influenza A virus A/Uruguay/716/2007 (H3N2)); assay: cell-based or functional assay
[6] = biological target: NA (N2) of influenza virus A/Victoria/361/2011 (influenza A virus A/Victoria/361/2011 (H3N2)); assay: cell-based or functional assay
[7] = biological target: NA (N2) of influenza virus A/Brisbane/10/2007 (influenza A virus A/Brisbane/10/2007 (H3N2)); assay: cell-based or functional assay
[8] = biological target: NA (N2) of influenza virus A/Wisconsin/67/2005 (influenza A virus A/Wisconsin/67/2005 (H3N2)); assay: cell-based or functional assay
[9] = biological target: NA (N2) of influenza virus A/Perth/16/2009 (influenza A virus A/Perth/16/2009 (H3N2)); assay: cell-based or functional assay
[10] = biological target: HA (H3) of influenza virus A/Switzerland/9715283/2013 (influenza A virus A/Switzerland/9715283/2013 (H3N2)); assay: cell-based or functional assay
[11] = biological target: HA (H3) of influenza virus A/Brisbane/10/2007 (influenza A virus A/Brisbane/10/2007 (H3N2)); assay: cell-based or functional assay
[12] = biological target: HA (H3) of influenza virus A/Wisconsin/67/2005 (influenza A virus A/Wisconsin/67/2005 (H3N2)); assay: cell-based or functional assay
[13] = biological target: HA (H3) of influenza virus A/Perth/16/2009 (influenza A virus A/Perth/16/2009 (H3N2)); assay: cell-based or functional assay
[14] = biological target: HA (H3) of influenza virus A/Uruguay/716/2007 (influenza A virus A/Uruguay/716/2007 (H3N2)); assay: cell-based or functional assay
[15] = biological target: HA (H3) of influenza virus A/Victoria/361/2011 (influenza A virus A/Victoria/361/2011 (H3N2)); assay: cell-based or functional assay
[16] = biological target: HA (H3) of influenza virus A/Victoria/210/2009 (influenza A virus A/Victoria/210/2009 (H3N2)); assay: cell-based or functional assay
[17] = biological target: HA (H3) of influenza virus A/Texas/50/2012 (influenza A virus A/Texas/50/2012 (H3N2)); assay: cell-based or functional assay
[18] = biological target: HA (H3) of influenza virus A/Brisbane/10/2007 (influenza A virus A/Brisbane/10/2007 (H3N2))
[19] = biological target: H3 A/duck/Shantou/1283/2001 (Influenza A virus (A/duck/Shantou/1283/2001))
[20] = biological target: HA (H3) of influenza virus A/Wisconsin/67/2005 (influenza A virus A/Wisconsin/67/2005 (H3N2))
[21] = biological target: HA (H3) of influenza virus A/Perth/16/2009 (influenza A virus A/Perth/16/2009 (H3N2))

Row | Binder | ELISA area under curve (AUC) [1] | ELISA area under curve (AUC) [2] | ELISA area under curve (AUC) [3] | NT50 [10] [µg/mL] | NT50 [11] [µg/mL] | NT50 [12] [µg/mL] | NT50 [13] [µg/mL] | NT50 [14] [µg/mL] | NT50 [15] [µg/mL] | NT50 [16] [µg/mL] | NT50 [17] [µg/mL] | ELISA area under curve (AUC) [18] | ELISA area under curve (AUC) [19] | ELISA area under curve (AUC) (H7 protein) | ELISA area under curve (AUC) [20] | ELISA area under curve (AUC) [21] | ELISA area under curve (AUC) (H1 protein) | further results
1 | 1122B9 hmAb (antibody, V domains shown) VH: EVQLVESGGGLVQPGGSLRLSCAASGFTFSGYAMSWVRQAPGKGLECVSGIIGSGGSTYSADSVKGRFTISRDNSKNTLDLEMNSLRAEDTAVYYCAKHTKSHYYSGMGVWGQGTTVTVSS VL: DIQMTQSPSSLSASVGDRVTITCQASQDISNYLNWYQQRPGKAPKLLIYDAANLETGVPSRFSGSGSATQFTFTISGLQPEDFATYYCQQYDNLPLTFGGGTKVEIK | 35.2 | 35.3 | 25.2 | – | – | – | – | – | – | – | – | – | – | – | – | – | – | –
2 | 1122A11 hmAb (antibody, V domains shown) VH: QVQLVQSGAEVSKPGASVKVSCKASGYSFTSQSLGWVRQAPGQGLEWMGIINPSGGITNYAHKFQGRVTMTRDTSTSTVYMELSSLRSEDTALYYCVRDLSHYNEVGHDRAYYYGMDIWGQGTTVTVSS VL: SYELIQPPSVSVSPGQTASITCSGDKLGKKYTCWYQQKPGQSPVLVIYQDNKRPSGIPERFSGSNSGNTATLTISGTQAMDEADYYCQAWDSSAVVFGGGTKLTVL | 35.8 | 34.7 | 15.2 | – | – | – | – | – | – | – | – | – | – | – | – | – | – | NT50 [4]: 3.13 µg/mL; NT50 [5]: 0.2 µg/mL; NT50 [6]: 1.6 µg/mL; NT50 [7]: 6.25 µg/mL; NT50 [8]: 25 µg/mL; NT50 [9]: 0.2 µg/mL
3 | 1092E4 hmAb (antibody, V domains shown) VH: QVQLVQSGAEVKKPGASVKVSCKASGYSFTRYGISWVRQAPGQGLEWMGWISAYTGNTDYAQKFQGRITMTTDTSTSTVYMELRSLRSDDTAVYYCARDHPQGVVILGSYYYGMDVWGQGNTVTVSS VL: EIVLTQSPGTLSLSPGERATLSCRASQSVTSRYLAWYQQKLGQAPRLLIYGASSRATGIPDRFSGSGSGTDFTLTISSLEPEDFAVYYCQQSGSPRTFGQGTKVEIK | – | – | – | 6.25 | 0.1 | 0.2 | 3.13 | 0.1 | 0.1 | 6.25 | 6.25 | 31.7 | 28.7 | 26 | 32.5 | 33.4 | 18.5 | –
4 | 1092C4 hmAb (antibody, V domains shown) VH: EVQLVQSGAEVKKPGASVKVSCKASGYSFTRYGISWVRQAPGQGLEWMGWISAYTGNTDYAQKFQGRITMTTDTSTSTAYMELRSLRSDDTAVYYCARDLPQGVVILGSYYYGMDVWGQGNTVTVSS VL: EIVLTQSPGTLSLSPGERATLSCRASQSVTSRYLAWYQQKLGQAPRLLIYGASSRATGIPDRFSGSGSGTDFTLTISSLEPEDLAVYYCQQSGSPRTFGQGTKVEIK | – | – | – | 0.78 | 0.1 | 1.6 | 3.13 | 0.2 | 0.1 | 6.25 | 6.25 | 32.3 | 34.4 | 27.3 | 33.7 | 31.4 | 9.8 | –
5 | 1086G8 hmAb (antibody, V domains shown) VH: EVQLLESGGGLVQPGGSLRLSCTASGFTFASDAMNWVRQAPGKGLEWVSAISGNGGITYFADSVKGRFTISRDNSKDTLYLQMDSLRAEDTAVYYCAKGVAPSHFNLLTGYYAGHYYFDFWGQGTLVTVSS VL: EIVMTQSPATLSVSPGERATLSCRASQSVRHNLAWYQHKPGQPPRLLIYGASTRAASVPARFSGSGSGTDFTLTISSLQSEDFAVYYCQQYNHWPPYTFGQGTKLEIK | – | – | – | 12.5 | 0.4 | 3.13 | 6.25 | 0.4 | 0.2 | 12.5 | 6.25 | 31.2 | 31.4 | 25.2 | 33.7 | 28 | 11.4 | –
